Assay results published in the supplement of paper PMC10567573.

B1: NET1 (parent)
chain: PTPAKRRSSALWSEMLDITMKESL
B2: INTS4 (parent)
chain: YSSGEFSSGRKWGDDAPKEEVDTG

Variants of: B1
Test: protein stability index of a GFP-peptide fusion (GPS, HEK-293T) (PSI 1-6); higher = more stable
Details: c terminus: a fixed tail appended
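Note: lentivirally expressed fusions sorted by FACS into six bins by GFP to DsRed ratio, PSI derived from sequencing read proportions per bin multiplied by bin number.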

Variant	protein stability index
PTAAKRRSSALWSEMLDITMKESL	1.88
PTCAKRRSSALWSEMLDITMKESL	1.81
PTMAKRRSSALWSEMLDITMKESL	2.24
PTRAKRRSSALWSEMLDITMKESL	2.5
PTNAKRRSSALWSEMLDITMKESL	2.27
PTSAKRRSSALWSEMLDITMKESL	2.17
PTPAKRRSSALWSEMLDIIMKESL	1.04
PNPAKRRSSALWSEMLDITMKESL	2.38
PAPAKRRSSALWSEMLDITMKESL	2.93
PYPAKRRSSALWSEMLDITMKESL	1.86
PLPAKRRSSALWSEMLDITMKESL	2.84
PVPAKRRSSALWSEMLDITMKESL	2.54
PFPAKRRSSALWSEMLDITMKESL	1.97
PEPAKRRSSALWSEMLDITMKESL	3.04
PSPAKRRSSALWSEMLDITMKESL	1.62
PCPAKRRSSALWSEMLDITMKESL	1.55
PTPAKVRSSALWSEMLDITMKESL	1.64
PTPAKFRSSALWSEMLDITMKESL	1.85
PTPAKIRSSALWSEMLDITMKESL	1.84
PTPAKARSSALWSEMLDITMKESL	3.48
PTPAKMRSSALWSEMLDITMKESL	2.56
PTPAKKRSSALWSEMLDITMKESL	2.1
PTPAKPRSSALWSEMLDITMKESL	2.02
PTPAKRRSSALWSEMLDITMKESW	1.36
PTPAKRRSSALWSEMLDITMKESD	2.48
PTPAKRRSSALWSEMLDITMKESG	2.47

Variant	protein stability index
PTPAKRRSSALWSEMLDITMKESE	1.31
PTPAKRRSSALWSEMLDITMKESV	2.33
PTPAKRRSSALWSEMLDITMKESK	3.05
PTPAKRRSSALWSEMLDITMKESF	1.89
PTPAKRRSSALWSEMLDITMKESP	2.85
PTPAKRRSSALWSEMLDITMKESC	2.6
PTPAKRRSSALWSEMLDITMKEST	2.2
PTPIKRRSSALWSEMLDITMKESL	1.99
PTPCKRRSSALWSEMLDITMKESL	1.47
PTPHKRRSSALWSEMLDITMKESL	1.84
PTPSKRRSSALWSEMLDITMKESL	1.73
PTPKKRRSSALWSEMLDITMKESL	2.63
PTPDKRRSSALWSEMLDITMKESL	2.46
PTPRKRRSSALWSEMLDITMKESL	2.03
PTPQKRRSSALWSEMLDITMKESL	2.57
PTPAKRRSSALWSEMLDITMSESL	2.73
PTPAKRRSSALWSEMLDITMAESL	2.38
PTPAKRRSSALWSEMLDITMHESL	2.25
PTPAKRRSSALWSEMLDYTMKESL	2.97
PTPAKRRSSALWSEMLDATMKESL	2.12
PTPAKRRSSALWSEMLDWTMKESL	1.91
PTPAKRRSSALWSEMLDGTMKESL	3.36
PTPAKRRSSALWSEMLDDTMKESL	3.39
PTPAKRRSSALWSEMLDITMKRSL	3.35
PTPAKRRSSALWSEMLDITMKDSL	2.1
PTPAKRRSSALWSEMLDITMKMSL	2.6

Variant	protein stability index
PTPAKRRSSALWSEMLDITMKPSL	1.72
PTPAKRRSSALWSEMLDITMKGSL	1.96
PTPAKRRSSALQSEMLDITMKESL	4.46
PTPAKRRSSALISEMLDITMKESL	3.5
PTPAKRRSSALSSEMLDITMKESL	4.09
PTPAKRRSSALVSEMLDITMKESL	3.65
PTPAKRRSSALLSEMLDITMKESL	3.31
PTPAKRRSSALTSEMLDITMKESL	4.19
PTPAKRRSSALESEMLDITMKESL	4.65
PTPAKRRSSALWSEMLDITMKEFL	1.69
PTPAKRRSSALWSEMLDITMKEGL	2.33
PTPAKRRSSALWSEMLDITMKEYL	1.9
PTPAKRRSSALWSEMLDITMKEEL	2.14
PTPAKRRSSALWSEMLDITMKEVL	1.88
PTPAKRRSSALWSEMLDITMKECL	1.4
PTPAKRRSSALWSEMLDITMKETL	1.89
PTPAKRRSSALWAEMLDITMKESL	1.42
PTPAKRRSSALWIEMLDITMKESL	2.13
PTPAKRRSSALWKEMLDITMKESL	2.34
PTPAKRRSSALWGEMLDITMKESL	2.86
PTPAKRRSSALWDEMLDITMKESL	3.58
PTPAKRRSSALWQEMLDITMKESL	1.12
PTPAKRRSAALWSEMLDITMKESL	2.2
PTPAKRRSIALWSEMLDITMKESL	1.86
PTPAKRRSVALWSEMLDITMKESL	1.88
PTPAKRRSGALWSEMLDITMKESL	2.79

Variant	protein stability index
PTPAKRRSSADWSEMLDITMKESL	4.29
PTPAKRRSSAGWSEMLDITMKESL	4.11
PTPAKRRSSAEWSEMLDITMKESL	4.75
PTPAKRRSSAYWSEMLDITMKESL	2.39
PTPAKRRSSAMWSEMLDITMKESL	2.89
PTPAKRRSSAFWSEMLDITMKESL	1.98
PTPAKRRSSAPWSEMLDITMKESL	2.75
PTPAKRRSSALWSEPLDITMKESL	4.32
PTPAKRRSSALWSEVLDITMKESL	2.9
PTPAKRRSSALWSELLDITMKESL	2.91
PTPAKRRSSALWSECLDITMKESL	2.38
PTPAKRRSSALWSEYLDITMKESL	1.96
PTPAKRRSSALWSEGLDITMKESL	3.83
PTPAKRRSSALWSEMLLITMKESL	2.07
PTPAKRRSSALWSEMLMITMKESL	1.26
PTPAKRRSSALWSEMLCITMKESL	1.53
PTPAKRRSSALWSEMLPITMKESL	2.83
PTPAKRRSSALWSEMLQITMKESL	1.85
PTPAKRRSSALWSEMLRITMKESL	2.27
PTPAKRRSSALWSEMLAITMKESL	1.95
PTPAKRRSSALWSEMLGITMKESL	2.25
PTPAKRRSSALWSEMPDITMKESL	2.38
PTPAKRRSSALWSEMFDITMKESL	2.1
PTPAKRRSSALWSEMEDITMKESL	3.67
PTPAKRRSSALWSEMGDITMKESL	2.33
PTPAKRRSSALWSEMNDITMKESL	3.84

Variant	protein stability index
PTPAKRRSSALWSEMADITMKESL	2.59
PTPAKRYSSALWSEMLDITMKESL	2.39
PTPAKRASSALWSEMLDITMKESL	2.61
PTPAKRMSSALWSEMLDITMKESL	2.15
PTPAKRFSSALWSEMLDITMKESL	2.03
PTPAKRHSSALWSEMLDITMKESL	2.34
PTPAKRPSSALWSEMLDITMKESL	1.96
PTPAKRKSSALWSEMLDITMKESL	2.29
PTPAKRSSSALWSEMLDITMKESL	2.71
PTPAERRSSALWSEMLDITMKESL	2.54
PTPASRRSSALWSEMLDITMKESL	2.19
PTPAGRRSSALWSEMLDITMKESL	2.59
PTPAARRSSALWSEMLDITMKESL	2.34
PTPANRRSSALWSEMLDITMKESL	2.52
PTPADRRSSALWSEMLDITMKESL	2.95
PTPAMRRSSALWSEMLDITMKESL	2.06
PTPAVRRSSALWSEMLDITMKESL	2.41
PTPAWRRSSALWSEMLDITMKESL	1.54
PTPAIRRSSALWSEMLDITMKESL	2.42
PTPAKRRSSYLWSEMLDITMKESL	1.63
PTPAKRRSSLLWSEMLDITMKESL	2.55
PTPAKRRSSTLWSEMLDITMKESL	2.52
PTPAKRRSSVLWSEMLDITMKESL	1.58
PTPAKRRSSDLWSEMLDITMKESL	3.58
VTPAKRRSSALWSEMLDITMKESL	2.63
GTPAKRRSSALWSEMLDITMKESL	2.28

Variant	protein stability index
CTPAKRRSSALWSEMLDITMKESL	1.75
KTPAKRRSSALWSEMLDITMKESL	2.04
DTPAKRRSSALWSEMLDITMKESL	2.12
WTPAKRRSSALWSEMLDITMKESL	1.89
PTPAKRRSSALWSEMLDITLKESL	1.55
PTPAKRRSSALWSEMLDITRKESL	3.42
PTPAKRRSSALWSEMLDITSKESL	3.71
PTPAKRRPSALWSEMLDITMKESL	2.01
PTPAKRRDSALWSEMLDITMKESL	2.65
PTPAKRRISALWSEMLDITMKESL	2.03
PTPAKRRFSALWSEMLDITMKESL	1.68
PTPAKRRWSALWSEMLDITMKESL	2.25
PTPAKRRGSALWSEMLDITMKESL	2.53
PTPAKRRSSALWSWMLDITMKESL	1.69
PTPAKRRSSALWSVMLDITMKESL	1.25
PTPAKRRSSALWSKMLDITMKESL	2.87
PTPAKRRSSALWSLMLDITMKESL	1.5
PTPAKRRSSALWSRMLDITMKESL	2.43
PTPAKRRSSALWSDMLDITMKESL	2.75
PTPAKRRSSALWSAMLDITMKESL	1.55
PTPAKRRSSALWSSMLDITMKESL	2.35
PTPAKRRSSALWSNMLDITMKESL	2.11
PTPAKRRSSALWSFMLDITMKESL	1.58
PTPAKRRSSALWSIMLDITMKESL	3.13

Variants of: B2
Test: as above
Details: c terminus: a fixed tail appended

Variant	protein stability index
YSSGEFSSGRKWGDDAPKGEVDTG	2.48
YSSGEFSSRRKWGDDAPKEEVDTG	2.32
YSSGEFSSVRKWGDDAPKEEVDTG	3.12
YSSGEFSSGRKWGDDARKEEVDTG	2.01
YSSGEFQSGRKWGDDAPKEEVDTG	2.69
YSSGEFCSGRKWGDDAPKEEVDTG	2.32
YSSGCFSSGRKWGDDAPKEEVDTG	1.84
YSSGMFSSGRKWGDDAPKEEVDTG	2.68
YSSGKFSSGRKWGDDAPKEEVDTG	2.22
YSSGEFSSGSKWGDDAPKEEVDTG	3.19
YSSGEFSSGMKWGDDAPKEEVDTG	1.52
YSSGEFSSGQKWGDDAPKEEVDTG	1.98
YSSGEFSSGPKWGDDAPKEEVDTG	2.3
YSSGEFSSGRSWGDDAPKEEVDTG	3.02
YSSGEFSSGRKWGDDAPKEERDTG	2.83
YSSGEGSSGRKWGDDAPKEEVDTG	4.57
YSSGESSSGRKWGDDAPKEEVDTG	5.16

Variant	protein stability index
YSSGEFSSGRKWYDDAPKEEVDTG	2.81
YSSGEFSSGRKWWDDAPKEEVDTG	2.44
YSSGEFSSGRKWGMDAPKEEVDTG	1.94
YSSGEFSSGRKWGCDAPKEEVDTG	1.79
YSSGEFSSGRKWGHDAPKEEVDTG	2.73
YSSGEFSSGRKWGDEAPKEEVDTG	3.12
YSSGEFSSGRKWGDQAPKEEVDTG	2.12
YSSIEFSSGRKWGDDAPKEEVDTG	4.11
PSSGEFSSGRKWGDDAPKEEVDTG	5.42
GSSGEFSSGRKWGDDAPKEEVDTG	5.47
YISGEFSSGRKWGDDAPKEEVDTG	2.42
YMSGEFSSGRKWGDDAPKEEVDTG	3.97
YSSGEFSSGRKWGDDAPKEEVPTG	2.38
YSSGEFSSGRKWGDDAPKEEVMTG	1.63
YSSGEFSSGRKWGDDAPKEEVDTR	2.83
YSSGEFSSGRKWGDDAPKEMVDTG	2.31
YSSGEFSSGRKWGDDAPKEYVDTG	3.19
